Laboratory results: paper PMC9363410

Legend:
[1] = molecular target: OsOTUB1-cat (OsOTUB1 residues 74 to 324, catalytic domain) (Oryza sativa); assay: cross-linking; 20 µM DUB with 100 µM Ub-PA in gel filtration buffer (50 mM Tris-HCl pH 8, 150 mM NaCl, 2 mM DTT), 37 °C, samples at time points, SDS-PAGE, Coomassie
[2] = molecular target: OsOTUB1-cat (OsOTUB1 residues 74 to 324, catalytic domain) (Oryza sativa)

percent of Ub-PA crosslinked in 1 min [1] [%] | KM of OsOTUB1-cat for the variant, fold reduction of affinity against Met1-diUb WT (Michaelis-Menten kinetics by HPLC, two replicates) [2] [fold] | Substance
> 90 | – | C-terminally propargylated Ub (Ub-PA)
– | 3.65 to 4.3 | Met1-diUb Q2A^prox (from UniProt P0CG48 1-76) (natural protein)
– | 4.2 to 6.23 | Met1-diUb Q2E^prox (from UniProt P0CG48 1-76) (natural protein)
– | 1.45 to 1.58 | Met1-diUb Q2H^prox (from UniProt P0CG48 1-76) (natural protein)
– | 1.52 to 1.91 | Met1-diUb Q2N^prox (from UniProt P0CG48 1-76) (natural protein)
